Data from the RNAGym collection of RNA variant scans (doi:10.1073/pnas.2313332121).

B1: TPR t1 (parent)
chain: GACCAAUCUGCCCUCAGAGCUCGAGAACAUCUUCGGAUGCAGAGGAGGCAGGCUUCGGUGGCGCGAUAGCGCCAACGUCCUCAACCUCCAAUGCAUCCCACCACAUGAUGAUGCCUGAAGAGCCUUGGUUUUUUG

Variants of: B1
Test: polymerase ribozyme fitness, log enrichment relative to wild type (log ratio); higher = more active; in vitro selection for triplet polymerase activity
In short: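 Mutant libraries for each subunit of a heterodimeric triplet polymerase ribozyme were made by PCR and then transcribed. Each library underwent one round of in vitro selection in triplicate: annealing with a biotinylated primer, the partner subunit and triplets, frozen incubation at −7 °C, gel excision of extended constructs, streptavidin-bead capture and RT-PCR. Input and output libraries were Illumina-sequenced, and only genotypes with ≥10 input reads and ≥1 read per output were kept. Fitness is the logarithm, base 2, of genotype enrichment over wild-type enrichment, computed from inverse-variance-weighted replicate averages.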

Point of comparison: U38A C53G C56U G110A, “polymerase ribozyme fitness (log ratio)” value -2.64. Against it:
- C70U C115U C123G — higher, -1.96
- G35C G61C U81G G117C — lower, -5.32
- C8A C104U G122A — higher, 0.724
- C12G G47U C94G G128A — lower, -4.93
- G63U G77C C124U — higher, -0.341
- A26G G63U — lower, -3.45
- A50G C56A — higher, -0.266
- G60C C86U — higher, 0.269
- A5G C13A C53U U59G — higher, -1.69
- G63C G107U — lower, -5.92
- G60A G61C U92C G113A — lower, -3.6
- C64U A66G C86U A95U C99A G117C — lower, -7.47
- A46U A50U G61U U125C — lower, -4.52
- C3A U9A G61C — higher, -2.34
- C8U A37U C56U A83C C97U C124A — higher, -1.47
- G48A U81C C102A A121C — higher, -0.944
- C22U C123A — lower, -3.4
- A27G C34G A43C G45U C115A — lower, -7.59
- A37U C40U U87G — higher, -1.01
- G61C C102U G122A C124A — lower, -3.47
- A18U A46U G61U A90C C115G — within 0.2 log units, -2.56
- G48C A103U G120A — lower, -6.04
- G63C U87G — higher, -0.832
- C40U G63C A121C — higher, 0.618
- C82U C88A G120U G128A — higher, -1.98
- A5U U9A U32C A37U C49U G69A G93A — lower, -4.95
- G39C A111C G113A — lower, -3.44
- U96A — higher, -0.895
- A26G A37U G42U C72A G120C — higher, -2.36
- G58C G61A U92C — higher, -1.98
- C28G G57A — lower, -4.66
- G17U G69A C114G — lower, -5.6
- C73G C124U — higher, 0.25
- G48U C56A C102U — within 0.2 log units, -2.75
- G45C C115U A121G G128A — lower, -4.67
- C11G A16U A24G G47C G63U A111C — lower, -7.31
- C70G U81C — lower, -3.83
- G63C U92A C98U — lower, -5.26
- A43U G51U G71A C79A U112G — lower, -6.57
- C56U G120A — higher, 0.719
- C20G C72G — lower, -4.5
- C56U C89G — higher, -1.27
- A43U A46C C115U U116C — higher, -2.39
- G44A C72A — higher, -0.836
- C11U C28U — higher, -1.61
- A68G G113C — lower, -4.28
- C53U A121G — higher, 1.95
- C4A C72A C114U C124A — higher, -2.33
- A16G G39U C53G — higher, -2.41
- C11A G60U C97A C123U — higher, -2.32
- G61U U96G U129G — higher, -1.29
- C12A C31A — lower, -6.73
- C28U G120C — higher, -1.37
- C22U G57U — lower, -4.03
- G45A C73A G113U — lower, -4.75
- U14G C70G — lower, -3.6
- C15A U96A — lower, -2.85
- G61A U87C U126G — higher, -1.59
- C8A U112G — higher, 0.614
- C12G A46U C49A A95C — higher, -2.16
- C64U A90U A100U — lower, -3.1
- C13A A16U — higher, -0.236
- U59C C79A G122A C123A U132A — higher, -2.39
- A50G G113C — higher, -1.84
- U78A C94G A118U G120C U132A — higher, -0.124
- C13A C56G C73U G77U — higher, -1.96
- C53A U130G — higher, -0.264
- U14C A83C — higher, -2.26
- G58C C94A — higher, -0.207
- G107U G117C — lower, -4.7
- C49A G52C C72A U96C — higher, -0.937
- G19U C88U — lower, -3.2
- G69U C73G C80A — lower, -7.09
- G69C A84C G128C — lower, -4.09
- A43U C76U C123G — higher, -0.376
- G17C A29G — lower, -4.75
- G120A G128U — higher, -0.62
- A37U C56G C72A — within 0.2 log units, -2.62
- C89U G120U U125A — higher, -0.262
- A18G G93C — lower, -3.75
- G113U G128U — lower, -4.72
- C13A A27U — lower, -3.33
- U7A C62G G117U — lower, -5.82
- A2C G60A C82U — higher, -2.16
- A29G U109C — higher, 0.997
- A66C A111G G117U — lower, -7.39
- G36C A84U C85A C114G — lower, -6
- G48C C70U C124A — higher, 0.758
- U9C G69U A83U — higher, -0.05
- G45A U59C C62G — lower, -5.53
- A18U A43G G60A U92C U112C — higher, -0.561
- U9G G45A A46C U106C — higher, -0.292
- C12A C15U C73A C79U C86A C115U — lower, -3.16
- C20U C53A — lower, -3.19
- C72U U130G — higher, -0.892
- G42C A66G C89G — lower, -4.07
- G48A G63U C88U — higher, -1.66
- U33G G63U A90U A111G G120C — lower, -6.96
- C12G G63A C115G G117U — lower, -4.35
- G117A G127A — lower, -4.19
- A91U G117A G120C G135C — lower, -3.63
- A5C G71U A75U C98U — higher, -1.25
- G10U C28U — higher, -2.12
- G110C G113A — lower, -6.42
- C11U G107A — lower, -6.13
- C56A C114U — higher, -2.03
- C53A C89U U126C — higher, -1.37
- C4U U32A G47A U112G — lower, -5.29
- C34U G51U G61A C114U — lower, -6.98
- C79A C115G A118U — lower, -4.7
- C62A U106A — higher, -1.37
- A5U A6G C53U G117A U129A — within 0.2 log units, -2.59
- C13U A29U — higher, -1.8
- C53G G57A G71A C94G C114A — lower, -5.83
- A84U C88G C115U U126A — lower, -3.84
- A43G G45U C72G — within 0.2 log units, -2.45
- C11U C53G C56U U87C G117U G120A G122A — lower, -3.01
- C28A A68G A74U G93A C114G — lower, -7.51
- C13G G69U G113A — higher, -2.1
- C11U A43U A84U U112A G128C — lower, -3.29
- A5C C15A C62G A100U G117U — lower, -4.14
- A18C U125G — lower, -3.63
- G44C U92G — within 0.2 log units, -2.61
- C64U C70A A111C C115G G128U — lower, -5.81
- C8G A43G G69C — lower, -3.18
- A90U A118U — higher, -0.274
- C72U C115U — higher, -0.526
- G63U C101U — within 0.2 log units, -2.57
- C34A G45C C53A G60U C124A — higher, -1.69
- G35C C56U — lower, -4.82
- C4U A74U — higher, -1.1
- U14C A18G C49G G61A G69A G113A — lower, -5.84
- U55C G113A — higher, -1.89
- C49A C72A G110C U112A — lower, -6.75
- C8G G60C — higher, 0.0647
- G36U G61U — higher, -0.625
- G51U G61U G127A — lower, -4.92
- A2C G39U A41C C56G C101A C123G — lower, -4.81
- A46U C98G — lower, -6.78
- G69U C114U U130G — higher, -1.33
- C40U C53A G60A G69U — higher, -0.0565
- G61A A118C G120C U126G — lower, -4.35
- C31U C73G — lower, -4.48
- A16C C73G U116C G135U — lower, -3.68
- A46U G120A G135A — higher, -0.18
- C12U G117A G127C — higher, -0.67
- U87A G117U U129G — lower, -5.03
- A18U U67G C101G U116C — lower, -5.12
- A27U G35A C49U C88A A90G C98A U109A — lower, -4.79
- A83C U96G U106A A121C — higher, 1.64
- C12G C13U C20A C40A C56U C114U C115A — lower, -3.7
- C4G C102A — lower, -3.83
- C8A C70U C72U — higher, -0.317
- G45C U78C C124A — higher, 0.349
- C53G A74G G117A — higher, -1.73
- G61C C73U — higher, -2.31
- G77C C89U G110C G135A — lower, -4.53
- G57A C94G G113A — lower, -3.76
- G35U C82U — lower, -7.04
- C3U C11G U21A U129A — higher, -0.924
- A5G — higher, -0.0211
- C28U U112A — higher, -1.56
- A41U C101U — higher, -1.85
- A16U C88U — higher, -1.68
- A43U A50C C73U U78C C94G — lower, -4.28
- C85G G122A — higher, -1.82
